The subject of series [1] is human IgG1 hinge/CH2 region. Kind of series: Site of hydrolysis by IdeSORK2.0, LC-MS. It counts as biochemical. The following applies: IgG1, IgG2, fusion proteins, LALA-mutated IgG. On the procedure: FIG. 5. IdeSork2.0 hydrolyses the hinge of IgG at an identical site as IdeS. Commercial and non-commercial biologics were hydrolyzed with IdeSork2.0 and hydrolysis products were analyzed using LC-MS.
Several substrates (IgG1, IgG2, fusion proteins, LALA-mutated IgG) were subjected to hydrolysis by IdeSORK2.0 and the site of hydrolysis identified through LC-MS. […] This is the same site that is recognized by IdeS. The site of hydrolysis has been confirmed for etanercept, trastuzumab, cetuximab, as well as two non-commercial monoclonal antibodies.
Subunit fragments were denatured and reduced followed by reversed phase LC-MS analysis. Separation was achieved using a BioResolve RP mAb Polyphenol, 450 Å, 2.7 μm 2.1×100 mm, Waters (0.1% formic acid in water and 0.1% formic acid in 95% acetonitrile as mobile phases) and run on an Agilent 1260/1290 UHPLC system coupled to a Bruker Impact II QTOF mass spectrometer. The obtained data was evaluated in Bruker Compass DataAnalysis software using the MaxEnt algorithm for deconvolution and SNAP algorithm for determination of the monoisotopic molecular weights.

The next series concerns sheep IgG. In words: Immunoglobulin specificity on SDS-PAGE: sheep IgG. It counts as biochemical. The settings on record: o/n at 37° C. On the procedure:
(§1) FIG. 11. Specificity of IdeSork2.0. IdeSork2.0 was mixed with different antibodies and incubated o/n at 37° C. before analysis on SDS-PAGE.
(§2) Various antibodies and antibody based therapeutics were incubated with Xork, IdeS, or IdeZ (1:40 ratio) for 1 hour at 37° C. in PBS, with substrate concentrations ranging between 2-5 mg/mL, before being analyzed on SDS-PAGE. For kinetic studies, a substrate level of 2-200 μM IVIG was used during 10 min at 37° C. before being analyzed on a UHPLC system.

A further series concerns the target mouse IgG1 (Mus musculus, UniProt P01868). Kind of series: Immunoglobulin specificity on SDS-PAGE: mouse IgG1. The following applies: 37° C., listed as IdeSork2.0. The format is biochemical. On the procedure:
(§3) FIG. 3. Specificity of IdeSork2.0. IdeSork2.0 was mixed with different antibodies and incubated o/n at 37° C. before analysis on SDS-PAGE. The enzyme itself is noted with an arrow. […] Mouse IgG1, mouse IgG2b and human IgA were not affected by IdeSork2.0.
as §2

The subject of the next series is IgG. In words: Time-dose assays (enzyme:substrate ratio, time). The format is biochemical. On the procedure: FIG. 8. IdeSork2.0 enzyme: substrate ratio. The impact of enzyme and substrate concentration for the reaction speed was investigated using a Box-Behnken experimental setting, also analyzing the impact of time for the reaction speed. Output was measured as percentage hydrolysis of IgG (top left figure), as well as quantity hydrolyzed IgG per unit enzyme (all other figures).
FIG. 9. IdeSork2.0 enzyme: substrate activity over time. To verify the impact of modifying the enzyme: substrate ratio, an experiment with varying amounts of substrate (5-40 μg) to a set amount of enzyme (1 μg) was conducted over time (30, 60, and 120 min).
To investigate the impact of substrate and enzyme concentration, as well as time needed to complete (>95% hydrolysis) a reaction, a new Box-Behnken assay was designed (FIG. 8). The data was supported by traditional assays, with similar results (FIG. 9). IdeSORK2.0 quite rapidly hydrolyzes the vast majority of the material, but needs a longer time to finish hydrolysis of the last percentages of intact IgG, similar to other immunoglobulin proteases. A ratio of 1:40 hydrolyzes >95% of IgG in 30-60 minutes.
To better understand the optimal conditions needed for the enzyme to exert its activity, a Box-Behnken design was employed for the experiment. Addition of NaCl (0-400 mM), pH (5.5-8.5), [enzyme], [substrate], time, and temperature were parameters investigated. […]

The subject of a further series is Trastuzumab. In words: Mechanism of action: time course on Trastuzumab, non-reduced SDS-PAGE. The settings on record: 1:20, 0-60 minutes. It counts as biochemical, human. On the procedure: FIG. 6. IdeSork2.0 is acting upon IgG in a two-step mechanism. To investigate if IdeSork2.0 is hydrolyzing both heavy chains of IgG simultaneously, or acting on them individually, we incubated Trastuzumab with IdeSork2.0 (1:20) and incubated for 0-60 minutes before analyzing on a non-reduced SDS-PAGE.
IdeS is known to first hydrolyze one chain of the antibody, and upon hydrolysis thereof, have lower affinity to the second chain. As such many antibodies may be only partly hydrolyzed at the start of the reaction. IdeSORK2.0 also generates fragments with single chain cleavage, however a large proportion of these are quickly processed to full cleavage (FIG. 6).

Series [2] has as its system denatured and reduced IgG. In words: Activity on denatured and reduced IgG. The format is biochemical. The settings on record: urea-denatured and reduced IgG, E:S 1:10, 5 hours at 37° C. On the procedure: FIG. 17. Denatured IgG was incubated with IgG hydrolases to investigate the necessity of a conserved 3D structure of the substrate for the enzymes to exert their function.
IgG that had been urea-denatured and reduced was incubated with IgG-specific enzymes at an E: S ratio of 1:10, incubating for 5 hours at 37° C. before analysis on SDS-PAGE.

For a further series, the system named is IgG2. In words: Comparison to other IgG proteases: IgG2. The format is biochemical. The following applies: SDS-PAGE. On the procedure:
FIG. 10. IdeSork2.0 is having a similar activity compared to IdeS and IdeZ. To investigate if IdeSork2.0 is hydrolyzing IgG in a similar way as IdeS and IdeZ they were all incubated against IgG1 and IgG2 and analyzed on SDS-PAGE. The cleavage patterns look identical, with both IdeSork2.0 and IdeS having less activity towards IgG2.
To further look into the activity of IdeSORK2.0, its activity was compared with IdeS and IdeZ against both IgG1 and IgG2.

In the next series the test system is dog IgG. In words: Immunoglobulin specificity on SDS-PAGE: dog IgG. The format is biochemical. The following applies: o/n at 37° C. On the procedure:
as §1, §2

The next series concerns casein. In words: General protease activity, EnzChek protease assay. It counts as biochemical. The following applies: casein substrate, FabULOUS 5 μg, FabRICATOR 10 μg, IdeSORK2.0 10 μg. On the procedure:
FIG. 2. General protease activity. General protease activity was measured with the EnzCHECK protease assay, using casein as a substrate.
General protease activity was determined using the EnzChek Protease Assay kit, according to manufacturer's instructions. As a positive control the general protease FabULOUS (SpeB, 5 μg) was used, and as a negative control the IgG-specific protease FabRICATOR (IdeS, 10 μg). IdeSORK2.0 was added to a total quantity of 10 μg.

A further series deals with human IgA. Kind of series: Immunoglobulin specificity on SDS-PAGE: human IgA. The following applies: 37° C. It counts as biochemical. On the procedure: as §3, §2

We go through one molecule from patent US20250320480A1, “Immunoglobulin Cleaving Enzyme” (priority 2021, published 2025).

“Also recorded” adds a separate entry of the source.

B1: IdeSORK2.0: SEQ ID NO: 2 (N terminal 312 amino acids of IdeSORK) with added N terminal methionine and C-terminal His6; 319 amino acids (protein)
chain: MSKRKLLKKIEKKDTSSVLTQKKQTKTLWADGVQVDDKDFKPSTENFGTNYLAAEYGIGKGYYDINKKFDGTDDDLCSGVVAANQLHWWLDRNKDYIEKYRQQSKDNGVTIGNTDIFELNKLHDEDQSNFFDFIKKSFGNKFLQPERLLNMYINGYGYLTSQDKAKTSQPSPSKLNFFQKVFKNNLLTDKTPINDIDEFSSQTKNALQNHKVLAVSFASIKNRGLGHVVTVWGADFDENGKVVALYVTDSDDRSKNIGNAKLGMKKLRIEVSAQDSSTIKLTGFEDKNSGGSLRHLYSLSTGEQIWKKYFEETHHHHHH
modifications: (IdeSORK2.0) Protein of SEQ ID NO 2 engineered to include an additional N terminal methionine and a C-terminal protein purification tag - His6
Consider B1, for which the “Number and position of hydrolytic sites” value is recorded as “only a single hydrolytic site was detected” in [1] and “only observed at a single site in the hinge region” in [1] (listed as IdeSork2.0). For the same molecule, the “Activity on sheep IgG” value in the series with sheep IgG was “only showed activity against horse and guinea pig IgG; also recorded: no visible effect”. The “Activity towards mouse IgG1” value in the series with mouse IgG1 is given as “not affected”. Besides, in the series with IgG (5-40 μg substrate to 1 μg enzyme, 30, 60 and 120 min), the “Hydrolysis of IgG over time at varying substrate amounts” value is listed as “Almost all IgG is hydrolyzed within 30 minutes”. Also, the “Hydrolysis of IgG” value in the series on IgG (ratio 1:40, 30-60 minutes) was greater than 95%. The figures for the “Mechanism of IgG heavy chain hydrolysis” value in the series with Trastuzumab and with Trastuzumab (listed as IdeSork2.0) were “activity is mediated one chain at a time” and “two-step reaction”, respectively. The “Time course of IgG hydrolysis” value in the series with Trastuzumab was “Most IgG is hydrolyzed within the first few minutes”. The “Activity against denatured and reduced IgG” value in series [2] is on record as “not active”. Moreover, the “Hydrolysis of IgG2” value is on record as “able to hydrolyze” with IgG2 and “less activity” in the series with IgG2 (listed as IdeSork2.0). In addition, the “Activity on dog IgG” value in the series on dog IgG was “only showed activity against horse and guinea pig IgG; also recorded: no visible effect”. Further, the “General protease activity (signal)” value with casein is recorded as “no signs of general protease activity”; in the series on casein (listed as IdeSork 2.0), “did not give any measurable signal”. Besides, the “Activity towards human IgA” value is recorded as “not active” with human IgA and “not affected” in the series with human IgA (listed as IdeSork2.0).
